Measured values: the Immune Epitope Database (IEDB)

Biological target: HLA-A*02:01
Experiment: IEDB peptide-MHC binding, purified MHC/competitive/radioactivity; ≥ and ≤ were set here for values at or beyond the usual limits of such assays
Conditions: source organism: Vaccinia virus WR

Sequence	IC50
QILDNAAKYV	3480 nM
QLSNNKYVL	1810 nM
RLRYNLCKYL	3250 nM
RLYNSLKRFT	873 nM
SLALKNSQA	2490 nM
SLKRFTHTTA	4540 nM
SMKGENVFI	611 nM
VLQQNNSFI	234 nM
VLQQNNSFII	709 nM
VLTILYYGA	212 nM
VMPEKRNVVV	3920 nM
YIRRNMINKL	3800 nM

Biological target: HLA-A*02:02
Experiment: as above
Conditions: source organism: Hepacivirus hominis

Sequence	IC50
KIMSGEKPSV	411 nM

Same assay, conditions: source organism: Influenza A virus

Sequence	IC50
ALANTIEV	162 nM
IVSSYVCSGL	161 nM
NLYNIRNL	1330 nM
RAMAWTVVNSI	74 nM
RLNKRSYLI	23 nM
RMGAVTTEV	90 nM

Same assay, conditions: source organism: Mammarenavirus brazilense

Sequence	IC50
KCFGNTALA	31 nM
LRYFIMAYV	213 nM

Same assay, conditions: source organism: Mammarenavirus choriomeningitidis

Sequence	IC50
KCMSAALKNL	58 nM
LNQTVYSLV	3330 nM

Same assay, conditions: source organism: Mammarenavirus lassaense

Sequence	IC50
LNQAVNNLV	511 nM
YCSNIKLQVV	1240 nM

Same assay, conditions: source organism: Mammarenavirus whitewaterense

Sequence	IC50
INISGYNLSL	179 nM
KTVAGSFAS	1600 nM

Same assay, conditions: source organism: SARS-CoV1

Sequence	IC50
LLFLVLIMLI	447 nM

Same assay, conditions: source organism: Vaccinia virus WR

Sequence	IC50
ALKNSQAEL	71 nM
ALTDVEKRI	74 nM
DMDFDLNIFM	1150 nM
DTGKKELALT	1040 nM
DVDMDFDLNI	2040 nM
GLSASDVDM	497 nM
GLTTHCTKL	100 nM
GMMQNDYGGM	103 nM
HIGHHYIWI	2560 nM
HLENDKIEDL	526 nM
IINSVSIIL	705 nM
ILANERYRSA	104 nM
IVNNFITKEI	1470 nM
IVSLCPTKKL	9.5 nM
KLDDTGKKEL	101 nM
KLFKRERDA	2390 nM
KLFKRERDAI	92 nM
KLKVDSDSGL	75 nM
KVYNGIFVDT	111 nM
LAEHISDSI	45 nM
LINLVQYRI	311 nM
LINLVQYRIL	2120 nM
LLEMKYALI	354 nM
LLENKSLTIL	185 nM
LMELPVKTDI	1510 nM
MAFILGIIIT	4680 nM

Sequence	IC50
MLHNPTSET	4210 nM
MTSTRTIIL	1340 nM
NASKTINAL	117 nM
NLRCHSAHV	384 nM
NLVQYRILPM	3990 nM
QILDNAAKYV	3930 nM
QLSNNKYVL	79 nM
RLRYNLCKYL	261 nM
RLYNSLKRFT	1060 nM
RVKQWVMDT	3630 nM
RVKQWVMDTL	3480 nM
RVNDLNRMPT	1360 nM
SLALKNSQA	662 nM
SLKRFTHTTA	884 nM
SMKGENVFI	5.5 nM
TLFIDRGSI	2100 nM
TMKAIEKDRL	171 nM
VISTIANSNI	282 nM
VLQQNNSFI	100 nM
VLQQNNSFII	665 nM
VLTILYYGA	1.3 nM
VMPEKRNVVV	3540 nM
VTSPLTGNNT	1450 nM
YIRRNMINKL	820 nM
YTKHSMLTNA	3900 nM

Biological target: HLA-A*02:03
Experiment: as above
Conditions: source organism: Hepacivirus hominis

Sequence	IC50
KIMSGEKPSV	1390 nM

Same assay, conditions: source organism: Influenza A virus

Sequence	IC50
ALANTIEV	59 nM
IVSSYVCSGL	795 nM
NLYNIRNL	187 nM
RAMAWTVVNSI	66 nM
RLNKRSYLI	146 nM
RMGAVTTEV	73 nM

Same assay, conditions: source organism: Mammarenavirus brazilense

Sequence	IC50
KCFGNTALA	1090 nM
LRYFIMAYV	396 nM

Same assay, conditions: source organism: Mammarenavirus choriomeningitidis

Sequence	IC50
KCMSAALKNL	193 nM
LNQTVYSLV	1510 nM

Same assay, conditions: source organism: Mammarenavirus lassaense

Sequence	IC50
LNQAVNNLV	3350 nM
YCSNIKLQVV	802 nM

Same assay, conditions: source organism: Mammarenavirus whitewaterense

Sequence	IC50
INISGYNLSL	1360 nM
KTVAGSFAS	3820 nM

Same assay, conditions: source organism: SARS-CoV1

Sequence	IC50
LLFLVLIMLI	3150 nM

Same assay, conditions: source organism: Vaccinia virus WR

Sequence	IC50
ALKNSQAEL	17 nM
ALTDVEKRI	1490 nM
DMDFDLNIFM	5000 nM
DTGKKELALT	262 nM
DVDMDFDLNI	1520 nM
GLSASDVDM	3540 nM
GLTTHCTKL	30 nM
GMMQNDYGGM	589 nM
HIGHHYIWI	899 nM
HLENDKIEDL	414 nM
IINSVSIIL	2900 nM
ILANERYRSA	18 nM
IVNNFITKEI	192 nM
IVSLCPTKKL	29 nM
KLDDTGKKEL	139 nM
KLFKRERDA	985 nM
KLFKRERDAI	120 nM
KLKVDSDSGL	56 nM
KVYNGIFVDT	1440 nM
LAEHISDSI	731 nM
LINLVQYRI	583 nM
LINLVQYRIL	2250 nM
LLEMKYALI	135 nM
LLENKSLTIL	541 nM
LMELPVKTDI	986 nM
MAFILGIIIT	2830 nM

Sequence	IC50
MLHNPTSET	184 nM
MTSTRTIIL	840 nM
NASKTINAL	708 nM
NLRCHSAHV	11 nM
NLVQYRILPM	1330 nM
QILDNAAKYV	3870 nM
QLSNNKYVL	4940 nM
RLRYNLCKYL	0.3 nM
RLYNSLKRFT	444 nM
RVKQWVMDT	3.6 nM
RVKQWVMDTL	689 nM
RVNDLNRMPT	1440 nM
SLALKNSQA	459 nM
SLKRFTHTTA	726 nM
SMKGENVFI	19 nM
TLFIDRGSI	802 nM
TMKAIEKDRL	1060 nM
VISTIANSNI	845 nM
VLQQNNSFI	249 nM
VLQQNNSFII	1030 nM
VLTILYYGA	18 nM
VMPEKRNVVV	299 nM
VTSPLTGNNT	2500 nM
YIRRNMINKL	70 nM
YTKHSMLTNA	141 nM

Biological target: HLA-A*68:02
Experiment: as above
Conditions: source organism: Influenza A virus

Sequence	IC50
IVSSYVCSGL	767 nM

Same assay, conditions: source organism: Mammarenavirus brazilense

Sequence	IC50
LRYFIMAYV	18 nM

Same assay, conditions: source organism: Mammarenavirus choriomeningitidis

Sequence	IC50
LNQTVYSLV	262 nM

Same assay, conditions: source organism: Mammarenavirus lassaense

Sequence	IC50
LNQAVNNLV	4880 nM
YCSNIKLQVV	1170 nM

Same assay, conditions: source organism: Mammarenavirus whitewaterense

Sequence	IC50
KTVAGSFAS	2990 nM

Same assay, conditions: source organism: Vaccinia virus WR

Sequence	IC50
IVNNFITKEI	1320 nM
IVSLCPTKKL	520 nM
KVYNGIFVDT	1380 nM
LAEHISDSI	428 nM
LINLVQYRI	1730 nM
MLHNPTSET	1570 nM
MTSTRTIIL	507 nM
NASKTINAL	52 nM
RVKQWVMDT	603 nM
RVKQWVMDTL	155 nM
RVNDLNRMPT	631 nM
TLFIDRGSI	181 nM
TMKAIEKDRL	1570 nM
VISTIANSNI	788 nM
VTSPLTGNNT	510 nM
YTKHSMLTNA	1420 nM
